How the values were obtained:
[1] = target: HIF1β (ARNT), endogenous (Mus musculus) (UniProt P53762); details: 5mC at CpG (M.SssI); ChIP-qPCR in isogenic mouse ES cells
HIF1α-HIF1β heterodimer = HIF1α-HIF1β heterodimer (UniProt Q61221+P53762); test: MST; details: 5mC at CpG of RCGTG; 20 mM phosphate, 75 mM NaCl, 5 mM DTT, 0.05% Tween-20, pH 7.4, 25 C; scale: fold lower affinity
HIF2α-HIF1β heterodimer = HIF2α-HIF1β heterodimer (UniProt P97481+P53762); test: MST; details: 5mC at CpG of RCGTG; 20 mM phosphate, 75 mM NaCl, 5 mM DTT, 0.05% Tween-20, pH 7.4, 25 C; scale: fold lower affinity

Row | Substance | binding signal (fold reduction vs unmethylated) [1] | binding signal (HIF1α-HIF1β heterodimer) | binding signal (HIF2α-HIF1β heterodimer)
1 | in vitro methylated human HIF binding region chr16:30,065,212-30,065,711 | 12.4 |  | 
2 | methylated RCGTG ds oligonucleotide |  | 15 | 15

Reference: patent publication US20220090209
